Our source for the Ki values is article PMC4564177.

Assay in all cases: fluorescence polarisation; competition set-up: constant concentration of isolated PSD95 PDZ domain and Cy5-labeled reference ligand titrated with the unlabeled CRHR1 peptide
On the technique in general: Fluorescence polarisation rises when a labelled molecule tumbles more slowly, as on binding a larger partner.

Assay [1] deals with isolated PDZ1-2 tandem of PSD95 (UniProt P78352).
In assay [2] the target is isolated PDZ2 domain of PSD95 (UniProt P78352).
Sequence of isolated PDZ2 domain of PSD95 (P78352 whole entry, the tested form may be a part): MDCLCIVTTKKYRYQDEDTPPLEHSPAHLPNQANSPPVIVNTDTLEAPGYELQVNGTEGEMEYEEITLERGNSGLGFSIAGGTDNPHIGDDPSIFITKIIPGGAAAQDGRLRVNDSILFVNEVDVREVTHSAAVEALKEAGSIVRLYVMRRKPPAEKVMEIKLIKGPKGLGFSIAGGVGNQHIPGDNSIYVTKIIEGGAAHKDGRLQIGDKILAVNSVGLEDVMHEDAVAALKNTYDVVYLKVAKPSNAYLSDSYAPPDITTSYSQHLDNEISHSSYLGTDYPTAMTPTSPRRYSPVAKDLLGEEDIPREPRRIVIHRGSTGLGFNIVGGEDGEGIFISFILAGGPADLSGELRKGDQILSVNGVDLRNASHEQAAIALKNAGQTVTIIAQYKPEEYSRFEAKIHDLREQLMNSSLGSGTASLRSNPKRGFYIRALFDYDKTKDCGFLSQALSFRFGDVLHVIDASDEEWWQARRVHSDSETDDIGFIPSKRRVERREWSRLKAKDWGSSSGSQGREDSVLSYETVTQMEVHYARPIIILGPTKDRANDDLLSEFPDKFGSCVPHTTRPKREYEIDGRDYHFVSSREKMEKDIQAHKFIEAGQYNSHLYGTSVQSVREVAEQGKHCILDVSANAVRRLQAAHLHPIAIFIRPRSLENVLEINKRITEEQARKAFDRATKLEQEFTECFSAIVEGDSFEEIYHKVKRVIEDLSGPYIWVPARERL
The target of assay [3] is isolated PDZ1 domain of PSD95 (UniProt P78352).
Sequence of isolated PDZ1 domain of PSD95 (P78352 whole entry, the tested form may be a part): as above
Assay [4] deals with isolated PDZ3 domain of PSD95 (UniProt P78352).
Sequence of isolated PDZ3 domain of PSD95 (P78352 whole entry, the tested form may be a part): as above

Sequence of C-terminal 10 amino acids of CRHR1 (unlabeled CRHR1 peptide) (P35347 whole entry, looked up, tested part not stated): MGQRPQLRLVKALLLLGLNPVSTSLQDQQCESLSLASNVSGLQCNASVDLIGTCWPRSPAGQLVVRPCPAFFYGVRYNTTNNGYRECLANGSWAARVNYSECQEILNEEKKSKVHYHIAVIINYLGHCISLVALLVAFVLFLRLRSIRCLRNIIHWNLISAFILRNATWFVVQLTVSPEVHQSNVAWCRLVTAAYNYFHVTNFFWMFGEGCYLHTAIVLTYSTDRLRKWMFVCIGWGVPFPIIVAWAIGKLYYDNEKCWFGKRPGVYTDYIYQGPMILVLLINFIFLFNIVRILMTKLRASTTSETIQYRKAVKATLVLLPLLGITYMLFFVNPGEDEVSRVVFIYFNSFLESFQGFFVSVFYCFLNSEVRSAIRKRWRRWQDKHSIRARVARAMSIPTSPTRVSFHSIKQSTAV
Sequence of isolated PDZ1-2 tandem of PSD95 (P78352 whole entry, the tested form may be a part): as the sequence (P78352 whole entry, the tested form may be a part) above

The term Ki denotes a measure of affinity in units of concentration, obtained from inhibition or displacement. In the case of “C-terminal 10 amino acids of CRHR1 (unlabeled CRHR1 peptide) (from UniProt P35347 406-415)”, the Ki in assay [1] worked out at 24 µM; in assay [2] it was 19 µM; in assay [3], 77 µM; in assay [4], 48 µM.
